Substitutions are numbered along the chain they refer to. In names and notes the source's numbering stands.
Target: T1, aCBF5 (P. abyssi, UniProt Q9V1A5 1-334)
T1 construct: aCBF5, archaeal H/ACA sRNP pseudouridine synthase, P. abyssi; also called pseudouridine synthase aCBF5; source: purified recombinant proteins
T1 sequence (looked up): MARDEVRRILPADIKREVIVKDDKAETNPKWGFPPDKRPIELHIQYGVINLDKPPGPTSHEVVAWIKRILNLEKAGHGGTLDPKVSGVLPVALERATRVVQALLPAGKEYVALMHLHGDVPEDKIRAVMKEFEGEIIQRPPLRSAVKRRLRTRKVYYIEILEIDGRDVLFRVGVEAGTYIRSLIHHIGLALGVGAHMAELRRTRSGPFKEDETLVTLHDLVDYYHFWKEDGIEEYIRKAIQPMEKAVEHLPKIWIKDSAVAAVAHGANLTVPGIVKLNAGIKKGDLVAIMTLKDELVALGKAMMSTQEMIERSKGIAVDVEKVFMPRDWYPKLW
Experiment: native gel or EMSA; 32P 5' end-labelled sRNA Pab21 or Pab91 (~50 fmol) incubated with the proteins (200 nM each) in buffer D (150 mM KCl, 1.5 mM MgCl2, 0.2 mM EDTA, 20 mM HEPES pH 7.9) at 65°C for 10 min; non-denaturing polyacrylamide gel; the proteins are seen only through the shift of the labelled sRNA
Conditions: both partners purified

B1: aNOP10 (natural protein, P. abyssi, UniProt Q9V0E3 1-60, looked up)
chain: MRFRIRKCPKCGRYTLKETCPVCGEKTKVAHPPRFSPEDPYGEYRRRLKRELLGIGRKEK
notes: aNOP10, archaeal H/ACA sRNP core protein, P. abyssi; source: purified recombinant proteins
- binding result: binds

B2: aNOP10 Y41A/Y44A (natural protein, P. abyssi, UniProt Q9V0E3 1-60, looked up)
chain: B1 chain with Y41A, Y44A
notes: aNOP10, P. abyssi, with two alanine substitutions in helix alpha1; also called aNOP10 mutant Y41A/Y44A; source: purified recombinant proteins
- binding result: binds

Reference: paper PMC3726423, “Comparative Study of Two Box H/ACA Ribonucleoprotein Pseudouridine-Synthases: Relation between Conformational Dynamics of the Guide RNA, Enzyme Assembly and Activity” (PLoS ONE, 2013)
